Measurements: CN116715774A (WUHAN ABCLONAL INC, dated 2023)

T1: 重组人AXL蛋白 (recombinant human AXL protein) (human, UniProt P30530 26-449, limits assumed)
T1 construct: also called 重组人AXL截短蛋白; 人受体酪氨酸激酶AXL
T1 sequence (looked up): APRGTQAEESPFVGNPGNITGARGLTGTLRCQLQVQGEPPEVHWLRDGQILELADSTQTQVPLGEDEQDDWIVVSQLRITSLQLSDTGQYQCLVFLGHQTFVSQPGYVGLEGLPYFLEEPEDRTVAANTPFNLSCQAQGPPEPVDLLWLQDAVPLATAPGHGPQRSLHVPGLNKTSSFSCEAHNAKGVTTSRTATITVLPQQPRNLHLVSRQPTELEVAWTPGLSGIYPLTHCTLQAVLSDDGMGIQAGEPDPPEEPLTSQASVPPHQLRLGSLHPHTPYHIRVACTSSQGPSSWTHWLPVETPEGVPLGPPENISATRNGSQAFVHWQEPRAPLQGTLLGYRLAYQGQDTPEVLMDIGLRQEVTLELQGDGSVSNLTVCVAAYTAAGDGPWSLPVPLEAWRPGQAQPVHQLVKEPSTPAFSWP


Biological target: T1, 重组人AXL蛋白 (recombinant human AXL protein)
Test: BLI (Gator biomolecular interaction analyser), antibody against recombinant human AXL

Kd | koff | kon | Binder
1.14 nM | 0.000387 s⁻¹ | 341000 M⁻¹ s⁻¹ | 兔单克隆抗体B (rabbit monoclonal antibody B against human AXL) (antibody, V domains shown, also called 抗人AXL兔单克隆抗体B) VH: QEQLKESGGGLVQPGGSLKLSCKASGFSLSYYGVNWVRQAPGKGLEWIACIDPVFGATYYASWVNDRFTISSHNAQNTLYLQLSSLTPADTATYFCARGRYYRYGYTYATGMDIWGPGTLVTVSS VL: AIDMTQTPSSVSAAVGDTVTINCQASEDIYSFLAWYQQKPGHSPKLLIYDASKLASGVSSRFKGSGSGTQFTLTISGVQCDDAATYYCQQTYSVSNADTAFGGGTEVVVKG
0.555 nM | 0.000132 s⁻¹ | 237000 M⁻¹ s⁻¹ | 兔单克隆抗体A (rabbit monoclonal antibody A against human AXL) (antibody, V domains shown, also called 抗人AXL兔单克隆抗体A) VH: QSVEESGGRLVTPGTPLTLTCTVSGIDLSTYAMIWVRQAPGEGLEWIGTIYTDGATAYARWAKGRFTISKTSTTVDLKMTSLTTEDTATYFCARGFGISKFVFSLWGPGTLVTVSL VL: DIVMTQTPASVEAAVGDTVTIKCQASQNIYSNLAWYQQKPGQPPKLLIYFASNLPSGVPSRFKGSGSGTEYTLTISGVQCDDAATYYCQNYYINEIVFGGGTEVVVKG
